In patent US20260209291A1 (KAMINO, published 2026):

B1: FST315dHBS-mFc (Fc fusion)
chain: GNCWLRQAKNGRCQVLYKTELSKEECCSTGRLSTSWTEEDVNDNTLFKWMIFNGGAPNCIPCKETCENVDCGPGSTCVVDQTNNPRCVCAPDCSNITWKGPVCGLDGKTYRNECALLKARCKEQPELEVQYQGRCKKTCRDVFCPGSSTCVVDQTNNAYCVTCNRICPEPASSEQYLCGNDGVTYSSACHLRKATCLLGRSIGLAYEGKCIKAKSCEDIQCTGGKKCLWDFKVGRGRCSLCDELCPDSKSDEPVCASDNATYASECAMKEAACSSGVLLEVKHSGSCNSISEDTEEEEEDEDQDYSFPISSILEWPRGPTIKPCPPCKCPAPNLLGGPSVFIFPPKIKDVLMISLSPIVTCVVVDVSEDDPDVQISWFVNNVEVHTAQTQTHREDYNSTLRVVSALPIQHQDWMSGKEFKCKVNNKDLPAPIERTISKPKGSVRAPQVYVLPPPEEEMTKKQVTLTCMVTDFMPEDIYVEWTNNGKTELNYKNTEPVLDSDGSYFMYSKLRVEKKNWVERNSYSCSVVHEGLHNHHTTKSFSRTPGK
B2: anti-vimentin-nanobody-FSD1 (VHH)
VHH: QVQLVESGGGLVQSGGSLTLTCAASGFTFSAASMRWVRQVPGKGLEWVATIDGTGANSYYSESAKGRFTISRDNARNTLYLQMNNLKPDDTAVYYCANFGRNYWGKGTQVTVSS
modifications: ATTO 488 fluorescent label, sites not stated
notes: also called anti-vimentin-nb-FSD1; type 1 design compound

Columns and labels:
activin A = biological target: T1, activin A (human, UniProt P08476 311-426); experiment: cell-based or functional assay
T1 sequence: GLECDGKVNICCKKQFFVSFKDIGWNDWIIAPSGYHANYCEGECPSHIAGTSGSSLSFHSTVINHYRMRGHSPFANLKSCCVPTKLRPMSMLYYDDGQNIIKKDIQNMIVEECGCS

myostatin = biological target: T2, myostatin (Homo sapiens (Human), UniProt O14793 267-375); experiment: cell-based or functional assay
T2 sequence: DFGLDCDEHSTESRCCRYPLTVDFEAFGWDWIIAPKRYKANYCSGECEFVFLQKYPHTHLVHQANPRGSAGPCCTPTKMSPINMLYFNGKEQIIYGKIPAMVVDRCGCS

[1] = biological target: T3, GDF11 (Growth Differentiation Factor 11) (Homo sapiens (Human), UniProt O95390 299-407); experiment: cell-based or functional assay
T3 sequence: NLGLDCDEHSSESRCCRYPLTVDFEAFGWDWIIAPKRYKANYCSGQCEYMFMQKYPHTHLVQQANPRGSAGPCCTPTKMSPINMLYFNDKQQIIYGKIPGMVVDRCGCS

[2] = biological target: TNFα (Tumor Necrosis Factor alpha) (UniProt P01375 77-233); experiment: SPR (Biacore 3000, 25 °C): compound captured to about 1,000 RU on a CM5 chip with the mouse antibody capture kit, TNFα injected for 120 s, 300 s dissociation; negative control
Chain of TNFα (Tumor Necrosis Factor alpha) (P01375 77-233 limits assumed): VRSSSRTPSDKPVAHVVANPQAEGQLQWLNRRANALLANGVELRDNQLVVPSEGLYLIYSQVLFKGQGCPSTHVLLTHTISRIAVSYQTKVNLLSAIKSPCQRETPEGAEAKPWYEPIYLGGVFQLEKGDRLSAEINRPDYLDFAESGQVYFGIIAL
Protocol: (§1) Surface plasmon resonance (SPR) experiments were carried out on a Biacore 3000 (Cytiva). A CM5 chip for capture of the compounds was prepared according to the instructions of the mouse antibody capture kit (Cytiva, #BR100838). VGFR(½)-mFc-FSD1, TNFR2-mFc-FSD1, VGFR(½)/FST291-mFc, TNFR2/FST291-mFc, VGFR(½)-hFc (Aflibercept), TNFR2-hFc (Etanercept), and FST315dHBS-mFc (SEQ ID NO: 30, SEQ ID NO: 31) were captured to approximately 1,000 RU (Resonance Units). TNFα (R&D Systems, #210-TA-005,) or VEGF (R&D Systems, #293-VE-010) were then injected for 120 s followed by a 300 s dissociation phase. At the end of each binding cycle, non-covalently attached molecules were removed from both surfaces by a 180 s regeneration with 10 mM glycine, pH 1.7. All proteins were diluted in running buffer ([…], pH 7.5, […], 2 mM CaCl₂) and 0.05% Tween 20). A flow rate of 30 μl/min was used in all steps of the experiments. Binding analysis was performed at 25° C., and data were collected at a rate of 1 Hz. Using the BIAevaluation 4.1.1 software (Cytiva), recorded signals were referenced; the signal from the in-line reference flow cell was subtracted as was the signal from a blank run (0 nM analyte).

[3] = biological target: VEGF (Vascular Endothelial Growth Factor) (UniProt P15692-4 27-191); experiment: SPR (Biacore 3000, 25 °C): compound captured to about 1,000 RU on a CM5 chip with the mouse antibody capture kit, VEGF injected for 120 s, 300 s dissociation; negative control
Chain of VEGF (Vascular Endothelial Growth Factor) (P15692 other isoform, or with tags, fused parts or gaps limits assumed): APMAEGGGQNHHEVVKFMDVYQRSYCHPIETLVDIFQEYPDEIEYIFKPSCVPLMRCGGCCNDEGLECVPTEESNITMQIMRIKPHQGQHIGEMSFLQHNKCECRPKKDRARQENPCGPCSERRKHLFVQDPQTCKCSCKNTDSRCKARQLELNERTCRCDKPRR
Protocol: as §1

[4] = biological target: T4, vimentin (endogenous, in HEK293 cells) (human (HEK293 cells), UniProt P08670 2-466); experiment: confocal imaging of adherent HEK293 cells after 18 hours with 1 µM ATTO 488 labelled compound; the filing reads the filaments as vimentin; no vimentin co-stain on the sheet
T4 construct: whole, on cells; Intracellular filament protein, inside the cells and not on their surface
T4 sequence (P08670 2-466): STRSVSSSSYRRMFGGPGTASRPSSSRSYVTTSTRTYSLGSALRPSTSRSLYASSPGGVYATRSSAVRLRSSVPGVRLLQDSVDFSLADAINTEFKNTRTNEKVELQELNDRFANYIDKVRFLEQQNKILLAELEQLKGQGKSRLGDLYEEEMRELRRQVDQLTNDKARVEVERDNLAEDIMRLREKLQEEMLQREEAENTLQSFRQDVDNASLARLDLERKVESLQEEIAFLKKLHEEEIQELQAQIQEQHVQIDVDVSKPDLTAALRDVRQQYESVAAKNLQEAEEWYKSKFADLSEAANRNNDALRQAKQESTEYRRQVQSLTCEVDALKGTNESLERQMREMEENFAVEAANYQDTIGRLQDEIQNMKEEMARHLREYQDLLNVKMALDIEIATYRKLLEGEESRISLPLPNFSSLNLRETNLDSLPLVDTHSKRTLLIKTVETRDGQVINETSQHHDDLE
Protocol: (§2) After labeling, compound concentration was determined using the Pierce Coomassie (Bradford) Protein Assay Kit (Thermo Scientific, #23200).
Briefly, HEK293 cells were seeded on a cover slip glass (Thorlabs, #CG15NH) treated with poly-D-lysine (ThermoFisher, #A3890401) to promote adhesion. Cells were seeded in DMEM (ThermoFisher, #11995073) supplemented with 10% fetal bovine serum (FBS). After 24 hours, cells were washed with PBS and compounds (1 μM) were added in 100% DMEM without FBS. A control sample using 100% DMEM without added compound was also included. After 3 hours and 18 hours of incubation, cells were washed 3 times with PBS. […] Cells were then washed 3 times with PBS and fixed using 4% formalin for 30 minutes. Cover slips were mounted using ProLong Glass Antifade Mountant (ThermoFisher, #P36980). Confocal imaging was conducted using a Zeiss LSM800 laser scanning confocal microscope (Carl Zeiss Microscopy GmbH, Oberkochen, Germany) equipped with 2 GaAsP and one Airyscan detector and Zen Blue Edition software (Carl Zeiss Microscopy GmbH, version 2.5). Confocal images were taken with the PlanApo x63 Oil NA 1.4 objective. […] Lysotracker Red DND-99 was excited using a 561 nm diode laser at 2.60% (both 3-hour and 18-hour samples) and detected at wavelengths 575-700 nm. For each sample, a Z-stack was recorded with an interval of 0.270 μm (3-hour samples) or 0.170 μm (18-hour samples). […]

[5] = biological target: T5, vimentin (endogenous, in mouse gastrocnemius muscle connective tissue cells) (mouse, UniProt P20152 2-466); experiment: confocal imaging of sections of mouse gastrocnemius muscle 18 hours after intramuscular injection of 8 µg ATTO 488 labelled compound; the filing reads the filaments as vimentin; no vimentin co-stain on the sheet
T5 construct: whole, on cells; Intracellular filament protein, inside the cells and not on their surface
T5 sequence (P20152 2-466): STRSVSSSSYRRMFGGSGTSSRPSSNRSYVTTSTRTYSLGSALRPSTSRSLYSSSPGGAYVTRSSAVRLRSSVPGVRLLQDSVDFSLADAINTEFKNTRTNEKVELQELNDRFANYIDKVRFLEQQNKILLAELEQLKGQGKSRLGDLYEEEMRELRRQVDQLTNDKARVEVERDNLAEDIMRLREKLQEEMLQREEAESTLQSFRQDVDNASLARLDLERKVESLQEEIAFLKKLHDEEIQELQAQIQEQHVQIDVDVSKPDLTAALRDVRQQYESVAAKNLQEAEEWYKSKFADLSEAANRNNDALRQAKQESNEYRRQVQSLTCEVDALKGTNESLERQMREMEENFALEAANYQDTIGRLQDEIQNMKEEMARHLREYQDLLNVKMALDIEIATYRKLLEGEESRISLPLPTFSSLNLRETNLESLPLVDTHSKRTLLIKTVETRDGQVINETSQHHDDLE
Protocol: as §2
Two 12-week-old female BALB/c mice were allocated for injection with either anti-vimentin-nanobody-FSD1 (type 1 compound, n=1) or anti-vimentin-nanobody (n=1). During anaesthesia, the right hind limb was shaved to expose the calf muscles. A single dose of 8 μg, fluorescently labeled compound was administered intramuscularly in a volume of 5 μl in the gastrocnemius muscle. Mice received a subcutaneous injection of pain relief (Carprofen 5 mg/kg) to counter any pain resulting from tension in the muscle. Eighteen hours after injection, the gastrocnemius muscle was dissected and immersion-fixed in 4% formaldehyde. The gastrocnemius muscle was ethanol dehydrated, embedded in paraffin, and sectioned at 4 μm thickness using a microtome. Sections were left unstained and mounted with DAPI containing mountant (#P36962, ProLong Diamond Antifade Mountant with DAPI) on microscope slides. […] DAPI was excited using a 405 nm diode laser at 1.00% and detected at wavelengths […]. For each sample, a Z-stack was recorded with an interval of 0.190 μm. […]

Row | Binder | IC50, neutralisation of 1 ng/mL activin A (pSmad2/3 luciferase reporter, HEK293 cells) (activin A) [pM] | IC50, neutralisation of 1 ng/mL myostatin (pSmad2/3 luciferase reporter, HEK293 cells) (myostatin) [pM] | IC50, neutralisation of 1 ng/mL GDF11 (pSmad2/3 luciferase reporter, HEK293 cells) [1] [pM] | binding result [2] | binding result [3] | binding result [4] | binding result [5]
1 | B1 | 47 | 225 | 205 | no binding (tested: 50 nM TNFα) | no binding (tested: 25 nM VEGF) | – | –
2 | B2 | – | – | – | – | – | binds | binds
